± gives the half width of the 95% confidence interval.
Tests used:
[1] = folding stability dG unfold from trypsin proteolysis; higher = more stable
In short: (§1)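 Designed mini-proteins (under 80 residues, no cysteine) in a PA-tagged cDNA display construct were digested with trypsin and chymotrypsin. Each protease was used at 11 concentrations (threefold dilutions) plus a no-protease condition, followed by sequencing. K50 was inferred by Bayesian fitting of sequencing counts, and unfolding free energy was derived against a sequence-predicted unfolded-state K50 and a shared folded-state K50, per protease or combined. Only designs with AlphaFold2 dimer inter-PAE above 15 were kept.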

[2] = folding stability dG unfold from chymotrypsin proteolysis; higher = more stable
In short: as §1

[3] = folding stability dG unfold (combined trypsin and chymotrypsin); higher = more stable
In short: as §1

## SAGGSAGGDTVVIEVDMSEEEALALARALADAGKTVEIVVRDKDGRTRKITITVPPEELELPEESAGGSAGG [r6_62_TrROS_Hall]
[1]
  folding stability dG unfold: 1.74 ± 0.019 kcal/mol
[2]
  folding stability dG unfold: 2.11 ± 0.029 kcal/mol
[3]
  folding stability dG unfold: 1.95 ± 0.042 kcal/mol

## SAGGSAGGDYMMIKITNGSIKLMDGDDGKPIANLPPNQEITIMIPIKPPPPPEERKYDPNGKPKSAGGSAGG [r6_40_TrROS]
[1]
  folding stability dG unfold: 0.515 ± 0.2 kcal/mol
[2]
  folding stability dG unfold: 1.24 ± 0.2 kcal/mol
[3]
  folding stability dG unfold: 0.799 ± 0.32 kcal/mol

## SAGGSAGGDYVKIEIWIPPGMPDAEELVDKMSNYGFEIKKIERDPKNNYVRVTIVFQIPPGAIKSAGGSAGG [r6_604_TrROS]
[1]
  folding stability dG unfold: 1.67 ± 0.084 kcal/mol
[2]
  folding stability dG unfold: 2.43 ± 0.067 kcal/mol
[3]
  folding stability dG unfold: 2.26 ± 0.27 kcal/mol

## SAGGSAGGEDPNFTPPVKVYYLDLEIEVKPNEIEKLKEEFPDLEAEYEKLGDTYKVKLRIPVPVSAGGSAGG [r6_685_TrMRF]
[1]
  folding stability dG unfold: 1.51 ± 0.077 kcal/mol
[2]
  folding stability dG unfold: 2.03 ± 0.12 kcal/mol
[3]
  folding stability dG unfold: 1.85 ± 0.17 kcal/mol

## SAGGSAGGEEEETVTLTLEVEVEAEVKVEKNADGEETEVEVKVKRVRVRLTLTLTKEELEKLLKSAGGSAGG [r6_119_TrROS_Hall]
[1]
  folding stability dG unfold: 2.59 ± 0.14 kcal/mol
[2]
  folding stability dG unfold: 4.17 ± 0.15 kcal/mol
[3]
  folding stability dG unfold: 3.54 ± 0.31 kcal/mol

## SAGGSAGGEELLATATPVTVGDEVYYRFTIRNPDGTPIGDRLVPASVLSGYSPDTVITLPPDLLSAGGSAGG [r6_34_JUSTAS]
[1]
  folding stability dG unfold: 1.29 ± 0.024 kcal/mol
[2]
  folding stability dG unfold: 0.784 ± 0.16 kcal/mol
[3]
  folding stability dG unfold: 1.04 ± 0.094 kcal/mol

## SAGGSAGGEGWRPLNVWIPFPDPKARLDEIVDMISKLFGWPIKIKITEVIPGDPDMIRVTIYVPSAGGSAGG [r6_211_TrROS]
[1]
  folding stability dG unfold: 3.41 ± 0.11 kcal/mol
[2]
  folding stability dG unfold: 3.53 ± 0.056 kcal/mol
[3]
  folding stability dG unfold: 3.47 ± 0.091 kcal/mol

## SAGGSAGGEKEYIIKIKLEMPNGREMKHWFPFKTVEQIKDQLRKLPDPNYKIDDVEIMPADELKSAGGSAGG [r6_297_TrROS]
[1]
  folding stability dG unfold: -0.237 ± 0.14 kcal/mol
[2]
  folding stability dG unfold: 0.594 ± 0.15 kcal/mol
[3]
  folding stability dG unfold: 0.263 ± 0.12 kcal/mol

## SAGGSAGGEKKGKPPVKIVIKVRDVDTGETRTITLTIEPDMTVEEIRELLRALLPPGAEVEIVPSAGGSAGG [r6_440_TrROS_Hall]
[1]
  folding stability dG unfold: 1.6 ± 0.052 kcal/mol
[2]
  folding stability dG unfold: 3.45 ± 0.15 kcal/mol
[3]
  folding stability dG unfold: 3.08 ± 0.16 kcal/mol

## SAGGSAGGELPPPPLLVVRVTVRRDGKELELELVVPSLEEALEALRALLPEEDLEIRVEVRLLPSAGGSAGG [r6_113_TrROS_Hall]
[1]
  folding stability dG unfold: 2.12 ± 0.089 kcal/mol
[2]
  folding stability dG unfold: 2.92 ± 0.16 kcal/mol
[3]
  folding stability dG unfold: 2.67 ± 0.2 kcal/mol

## SAGGSAGGENNIEVYYVEVKVPDPSIPLSVVLEKLPLPPEFLTVTPVEVKPPDGTVLIAIYRDSSAGGSAGG [r6_955_TrMRF]
[1]
  folding stability dG unfold: 0.516 ± 0.02 kcal/mol
[2]
  folding stability dG unfold: -0.0815 ± 0.14 kcal/mol
[3]
  folding stability dG unfold: 0.409 ± 0.089 kcal/mol

## SAGGSAGGEPPPVVITVTVRNPATGETVKATAVLNPDGTLQVTVTRPDGSKQTFTATISAEALKSAGGSAGG [r6_588_TrROS_Hall]
[1]
  folding stability dG unfold: 2.76 ± 0.33 kcal/mol
[2]
  folding stability dG unfold: 3.86 ± 0.15 kcal/mol
[3]
  folding stability dG unfold: 3.63 ± 0.34 kcal/mol

## SAGGSAGGEPVKIEWEPIGRDPNGAFKFRLIIRDPDGTVQRTEIWINPNGGMQVETETIPPEDNSAGGSAGG [r6_263_TrROS]
[1]
  folding stability dG unfold: 1.92 ± 0.065 kcal/mol
[2]
  folding stability dG unfold: 2.15 ± 0.085 kcal/mol
[3]
  folding stability dG unfold: 2.13 ± 0.14 kcal/mol

## SAGGSAGGEWVIINIMFRFPPGDPNIKIEIKFPGLPKDMKIEYSIFPTDNWYYIMVSIWVPPNASAGGSAGG [r6_482_TrROS]
[1]
  folding stability dG unfold: 3.66 ± 0.29 kcal/mol
[2]
  folding stability dG unfold: 5.16 ± 0.15 kcal/mol
[3]
  folding stability dG unfold: 4.85 ± 0.34 kcal/mol

## SAGGSAGGFKIRPIGVDDNYIVFRFRPDDPEALKKLGFKITGVEESGGSVEIIFRMPPEAKDLISAGGSAGG [r6_109_TrROS]
[1]
  folding stability dG unfold: 0.781 ± 0.12 kcal/mol
[2]
  folding stability dG unfold: 0.399 ± 0.16 kcal/mol
[3]
  folding stability dG unfold: 0.584 ± 0.12 kcal/mol

## SAGGSAGGGDAESYAKEKGFVEIKVTKLPDGSERVTAKYPDGTTADILYTPGQGTFTLLETKKESAGGSAGG [r6_906_JUSTAS]
[1]
  folding stability dG unfold: 0.154 ± 0.034 kcal/mol
[2]
  folding stability dG unfold: 0.407 ± 0.082 kcal/mol
[3]
  folding stability dG unfold: 0.332 ± 0.078 kcal/mol

## SAGGSAGGGGPGAPAVPTVSINIKIEEGEKVTIRNGTNKDEIIKSTKEEAEKKGKKVTVETVEGSAGGSAGG [r6_869_JUSTAS]
[1]
  folding stability dG unfold: -0.273 ± 0.28 kcal/mol
[2]
  folding stability dG unfold: 1.26 ± 0.24 kcal/mol
[3]
  folding stability dG unfold: 0.883 ± 0.28 kcal/mol

## SAGGSAGGGKVLLEIYVPSEVPSVEELVEKLESEGFEVVKVESVPEGDYVRILVEKDVPPESIESAGGSAGG [r6_601_TrMRF]
[1]
  folding stability dG unfold: 1.28 ± 0.066 kcal/mol
[2]
  folding stability dG unfold: 1.71 ± 0.15 kcal/mol
[3]
  folding stability dG unfold: 1.57 ± 0.11 kcal/mol

## SAGGSAGGGLDPVPIKRVTVLRNPETDEYVVLIENEDGLPYAFPFDSLEDAERFVRRLVEEGYLSAGGSAGG [r6_65_TrMRF]
[1]
  folding stability dG unfold: 4.76 ± 0.09 kcal/mol
[2]
  folding stability dG unfold: 5.01 ± 0.061 kcal/mol
[3]
  folding stability dG unfold: 4.967 ± 0.047 kcal/mol

## SAGGSAGGGLIEIIPNTLKAKIINPKTGKVEEIEFSNIDELIEEIKKKYPNVDFKILPNGIILGSAGGSAGG [r6_286_TrMRF]
[1]
  folding stability dG unfold: 3.14 ± 0.16 kcal/mol
[2]
  folding stability dG unfold: 2.82 ± 0.07 kcal/mol
[3]
  folding stability dG unfold: 3.05 ± 0.19 kcal/mol

## SAGGSAGGGMMLTLSSQTTQTSYDPSGLSTTLSLTTNPLGGTTVVTTTTVPGTGEVSVTTTPSSSAGGSAGG [r6_977_JUSTAS]
[1]
  folding stability dG unfold: 1.32 ± 0.024 kcal/mol
[2]
  folding stability dG unfold: 0.508 ± 0.065 kcal/mol
[3]
  folding stability dG unfold: 1.04 ± 0.045 kcal/mol

## SAGGSAGGGMPMNIKVEEITSETIPPDVTVSETKVIDPSGKELKYLTVTTVRTDGKTSVLTVEGSAGGSAGG [r6_830_JUSTAS]
[1]
  folding stability dG unfold: 0.201 ± 0.087 kcal/mol
[2]
  folding stability dG unfold: -0.58 ± 0.56 kcal/mol
[3]
  folding stability dG unfold: -0.0271 ± 0.31 kcal/mol

## SAGGSAGGGMVKREIKVTVTRLPESDVWLVTVTTKIGDKWEIIPVPVAAPADLSAEELAKEVLESAGGSAGG [r6_21_JUSTAS]
[1]
  folding stability dG unfold: 1.09 ± 0.036 kcal/mol
[2]
  folding stability dG unfold: 0.751 ± 0.087 kcal/mol
[3]
  folding stability dG unfold: 0.939 ± 0.11 kcal/mol

## SAGGSAGGGPRAVPVGELELVLGDLVVRVRFFRNPESDSVSVRVEVRPLPPISAEELARLGEEGSAGGSAGG [r6_177_TrMRF]
[1]
  folding stability dG unfold: 1.67 ± 0.062 kcal/mol
[2]
  folding stability dG unfold: 3.52 ± 0.049 kcal/mol
[3]
  folding stability dG unfold: 2.91 ± 0.15 kcal/mol

## SAGGSAGGGRLLIDRAFDSLEDIEEFLRELETPALVHLPDGTELFYERGDGFTEIHVIPPGELGSAGGSAGG [r6_641_TrMRF]
[1]
  folding stability dG unfold: 0.277 ± 0.072 kcal/mol
[2]
  folding stability dG unfold: 1.26 ± 0.053 kcal/mol
[3]
  folding stability dG unfold: 1 ± 0.099 kcal/mol

## SAGGSAGGGRRLLIEADSEELRELLEALPPEELKNVRVYGPGGVEFPAGEIEKYKYGPLLIEVPSAGGSAGG [r6_428_TrMRF]
[1]
  folding stability dG unfold: 0.174 ± 0.099 kcal/mol
[2]
  folding stability dG unfold: 0.756 ± 0.18 kcal/mol
[3]
  folding stability dG unfold: 0.669 ± 0.1 kcal/mol

## SAGGSAGGGSLTPLSEDETTITLRLSPSLDEVLKELGLTVTGVEEEGETVTVTVKVSPEVKEKLSAGGSAGG [r6_109_JUSTAS]
[1]
  folding stability dG unfold: 0.13 ± 0.062 kcal/mol
[2]
  folding stability dG unfold: -0.183 ± 0.2 kcal/mol
[3]
  folding stability dG unfold: 0.00369 ± 0.19 kcal/mol
